Measured values taken from patent publication US20250188166A1.

Experiments:
[1] = target: IL-18 polypeptide C154 (human) (UniProt Q14116); assay: cell-based or functional assay
[2] = target: IL-18 polypeptide C151 (human) (UniProt Q14116); assay: cell-based or functional assay
[3] = target: IL-18 polypeptide C160 (human) (UniProt Q14116); assay: cell-based or functional assay
[4] = target: IL-18 polypeptide SEQ ID NO: 52 (E06K, T63A) (human) (UniProt Q14116); assay: cell-based or functional assay
[5] = target: IL-18 polypeptide SEQ ID NO: 46 (E06K, K53A, S55A, M51G) (human) (UniProt Q14116); assay: cell-based or functional assay
[6] = target: IL-18 polypeptide C155 (human) (UniProt Q14116); assay: cell-based or functional assay
[7] = target: IL-18 polypeptide SEQ ID NO: 48 (C38S, C68S, C76S, C127S, K70C) (human) (UniProt Q14116); assay: cell-based or functional assay
[8] = target: IL-18 polypeptide C149 (human) (UniProt Q14116); assay: cell-based or functional assay
[9] = target: IL-18 polypeptide SEQ ID NO: 47 (C38S, C68S, C76S, C127S) (human) (UniProt Q14116); assay: cell-based or functional assay
[10] = target: IL-18 polypeptide C145 (human) (UniProt Q14116); assay: cell-based or functional assay
[11] = target: IL-18 polypeptide C156 (human) (UniProt Q14116); assay: cell-based or functional assay
[12] = target: IL-18 polypeptide SEQ ID NO: 35 (Y01G, F02A, E06K, M51G, K53A, D54A, S55A, T63A) (human) (UniProt Q14116); assay: cell-based or functional assay
[13] = target: IL-18 polypeptide SEQ ID NO: 43 (E06K, K53A, S55A, Y01G) (human) (UniProt Q14116); assay: cell-based or functional assay
[14] = target: IL-18 polypeptide C150 (human) (UniProt Q14116); assay: cell-based or functional assay
[15] = target: IL-18 polypeptide SEQ ID NO: 59 (E6K, C38A, K53A) (human) (UniProt Q14116); assay: cell-based or functional assay
[16] = target: IL-18 polypeptide SEQ ID NO: 36 (K53A) (human) (UniProt Q14116); assay: cell-based or functional assay
[17] = target: IL-18 polypeptide C148 (human) (UniProt Q14116); assay: cell-based or functional assay
[18] = target: IL-18 polypeptide SEQ ID NO: 40 (E06K, S55A) (human) (UniProt Q14116); assay: cell-based or functional assay
[19] = target: IL-18 polypeptide C163 (human) (UniProt Q14116); assay: cell-based or functional assay
[20] = target: IL-18 polypeptide SEQ ID NO: 60 (E6K, C38Q, K53A) (human) (UniProt Q14116); assay: cell-based or functional assay
[21] = target: IL-18 polypeptide SEQ ID NO: 53 (K53A, T63A) (human) (UniProt Q14116); assay: cell-based or functional assay
[22] = target: IL-18 polypeptide C164 (human) (UniProt Q14116); assay: cell-based or functional assay
[23] = target: IL-18 polypeptide SEQ ID NO: 50 (E06K, K53A, T63A) (human) (UniProt Q14116); assay: cell-based or functional assay
[24] = target: IL-18 polypeptide SEQ ID NO: 54 (E06K, K53A, C38S, C68S, C76S, C127S, K70C) (human) (UniProt Q14116); assay: cell-based or functional assay
[25] = target: IL-18 polypeptide SEQ ID NO: 6 (E6K, V11I, C38A, K53A, T63A, C68A, C76A, C127A, D98C) (human) (UniProt Q14116); assay: cell-based or functional assay
[26] = target: IL-18 polypeptide C143 (human) (UniProt Q14116); assay: cell-based or functional assay
[27] = target: IL-18 polypeptide SEQ ID NO: 42 (E06K, K53A, S55A, T63A) (human) (UniProt Q14116); assay: cell-based or functional assay
[28] = target: IL-18 polypeptide C144 (human) (UniProt Q14116); assay: cell-based or functional assay
[29] = target: IL-18 polypeptide C153 (human) (UniProt Q14116); assay: cell-based or functional assay
[30] = target: IL-18 polypeptide C152 (human) (UniProt Q14116); assay: cell-based or functional assay
[31] = target: IL-18 polypeptide SEQ ID NO: 9 (E6K, C38A, K53A, C68A, D98C) (human) (UniProt Q14116); assay: cell-based or functional assay
[32] = target: IL-18 polypeptide C147 (human) (UniProt Q14116); assay: cell-based or functional assay
[33] = target: IL-18 polypeptide C162 (human) (UniProt Q14116); assay: cell-based or functional assay
[34] = target: IL-18 polypeptide SEQ ID NO: 62 (E6K, C38A, K53A, C127A) (human) (UniProt Q14116); assay: cell-based or functional assay
[35] = target: native IL-18 wild-type (SEQ ID NO: 1) (human) (UniProt Q14116); assay: cell-based or functional assay
[36] = target: IL-18 polypeptide SEQ ID NO: 5 (E6K, V11I, C38A, K53A, T63A, C68A, C76A, C127A, M86C) (human) (UniProt Q14116); assay: cell-based or functional assay
[37] = target: IL-18 polypeptide SEQ ID NO: 41 (K53A, S55A) (human) (UniProt Q14116); assay: cell-based or functional assay
[38] = target: IL-18 polypeptide SEQ ID NO: 55 (K53A, T63A, C38S, C68S, C76S, C127S, K70C) (human) (UniProt Q14116); assay: cell-based or functional assay
[39] = target: IL-18 polypeptide SEQ ID NO: 38 (E06K) (human) (UniProt Q14116); assay: cell-based or functional assay
[40] = target: IL-18 polypeptide C165 (human) (UniProt Q14116); assay: cell-based or functional assay
[41] = target: IL-18 polypeptide C159 (human) (UniProt Q14116); assay: cell-based or functional assay
[42] = target: IL-18 polypeptide SEQ ID NO: 57 (E6K, C38S, K53A) (human) (UniProt Q14116); assay: cell-based or functional assay
[43] = target: IL-18 polypeptide C158 (human) (UniProt Q14116); assay: cell-based or functional assay
[44] = target: IL-18 polypeptide SEQ ID NO: 34 (E06K, K53A, S55A) (human) (UniProt Q14116); assay: cell-based or functional assay
[45] = target: IL-18 polypeptide SEQ ID NO: 39 (E06K, K53A) (human) (UniProt Q14116); assay: cell-based or functional assay
[46] = target: IL-18 polypeptide C167 (human) (UniProt Q14116); assay: cell-based or functional assay
[47] = target: IL-18 polypeptide SEQ ID NO: 51 (T63A) (human) (UniProt Q14116); assay: cell-based or functional assay
[48] = target: IL-18 polypeptide SEQ ID NO: 4 (E6K, C38A, K53A, C68A, M86C) (human) (UniProt Q14116); assay: cell-based or functional assay
[49] = target: IL-18 polypeptide C168 (human) (UniProt Q14116); assay: cell-based or functional assay
[50] = target: IL-18 polypeptide C157 (human) (UniProt Q14116); assay: cell-based or functional assay
[51] = target: IL-18 polypeptide C166 (human) (UniProt Q14116); assay: cell-based or functional assay
[52] = target: IL-18 polypeptide C161 (human) (UniProt Q14116); assay: cell-based or functional assay
[53] = target: IL-18 polypeptide C146 (SEQ ID NO: 68) (human) (UniProt Q14116); assay: cell-based or functional assay
[54] = target: IL-18 polypeptide SEQ ID NO: 37 (S55A) (human) (UniProt Q14116); assay: cell-based or functional assay
[55] = target: Composition D (LZM-009 conjugated to IL-18 polypeptide SEQ ID NO: 31) (human) (UniProt Q14116)
[56] = target: Composition A (LZM-009 conjugated to IL-18 polypeptide SEQ ID NO: 30) (human) (UniProt Q14116)
[57] = target: native IL-18 wild-type (SEQ ID NO: 1) (human) (UniProt Q14116)
[58] = target: Composition C (Trastuzumab/Herceptin conjugated to IL-18 polypeptide SEQ ID NO: 30) (human)
[59] = target: IL-18 polypeptide SEQ ID NO: 31 (C38A, C76A, C127A) (human) (UniProt Q14116)

IC50 of IL-18BP on IFNγ secretion by NK92 cells [1]: 3.71 nM
IC50 of IL-18BP on IFNγ secretion by NK92 cells [2]: 3.62 nM
IC50 of IL-18BP on IFNγ secretion by NK92 cells [3]: 3.18 nM
IC50 of IL-18BP on IFNγ secretion by NK92 cells [4]: 47.1 nM
IC50 of IL-18BP on IFNγ secretion by NK92 cells [5]: 0.189 nM
IC50 of IL-18BP on IFNγ secretion by NK92 cells [6]: 3.23 nM
IC50 of IL-18BP on IFNγ secretion by NK92 cells [7]: 0.114 nM
IC50 of IL-18BP on IFNγ secretion by NK92 cells [8]: 1.17 nM
IC50 of IL-18BP on IFNγ secretion by NK92 cells [9]: 0.444 nM
IC50 of IL-18BP on IFNγ secretion by NK92 cells [10]: 10.2 nM
IC50 of IL-18BP on IFNγ secretion by NK92 cells [11]: 0.681 nM
IC50 of IL-18BP on IFNγ secretion by NK92 cells [12]: > 55 nM
IC50 of IL-18BP on IFNγ secretion by NK92 cells [13]: 27.8 nM
IC50 of IL-18BP on IFNγ secretion by NK92 cells [14]: 21.3 nM
IC50 of IL-18BP on IFNγ secretion by NK92 cells [15]: 654 nM
IC50 of IL-18BP on IFNγ secretion by NK92 cells [16]: 27.3 nM
IC50 of IL-18BP on IFNγ secretion by NK92 cells [17]: 5.05 nM
IC50 of IL-18BP on IFNγ secretion by NK92 cells [18]: 15 nM
IC50 of IL-18BP on IFNγ secretion by NK92 cells [19]: 0.823 nM
IC50 of IL-18BP on IFNγ secretion by NK92 cells [20]: 780 nM
IC50 of IL-18BP on IFNγ secretion by NK92 cells [21]: 18.2 nM
IC50 of IL-18BP on IFNγ secretion by NK92 cells [22]: 0.456 nM
IC50 of IL-18BP on IFNγ secretion by NK92 cells [23]: > 1000 nM
IC50 of IL-18BP on IFNγ secretion by NK92 cells [24]: 23.5 nM
IC50 of IL-18BP on IFNγ secretion by NK92 cells [25]: 5.85 nM
IC50 of IL-18BP on IFNγ secretion by NK92 cells [26]: 1.62 nM
IC50 of IL-18BP on IFNγ secretion by NK92 cells [27]: 1060 nM
IC50 of IL-18BP on IFNγ secretion by NK92 cells [28]: 7.52 nM
IC50 of IL-18BP on IFNγ secretion by NK92 cells [29]: 2.22 nM
IC50 of IL-18BP on IFNγ secretion by NK92 cells [30]: 7.85 nM
IC50 of IL-18BP on IFNγ secretion by NK92 cells [31]: 961 nM
IC50 of IL-18BP on IFNγ secretion by NK92 cells [32]: 47.6 nM
IC50 of IL-18BP on IFNγ secretion by NK92 cells [33]: 7.29 nM
IC50 of IL-18BP on IFNγ secretion by NK92 cells [34]: 284 nM
IC50 of IL-18BP on IFNγ secretion by NK92 cells [35]: 1.47 nM
IC50 of IL-18BP on IFNγ secretion by NK92 cells [36]: 62.4 nM
IC50 of IL-18BP on IFNγ secretion by NK92 cells [37]: 37.3 nM
IC50 of IL-18BP on IFNγ secretion by NK92 cells [38]: > 1000 nM
IC50 of IL-18BP on IFNγ secretion by NK92 cells [39]: 7.79 nM
IC50 of IL-18BP on IFNγ secretion by NK92 cells [40]: 0.885 nM
IC50 of IL-18BP on IFNγ secretion by NK92 cells [41]: 1.81 nM
IC50 of IL-18BP on IFNγ secretion by NK92 cells [42]: 146 nM
IC50 of IL-18BP on IFNγ secretion by NK92 cells [43]: 3.98 nM
IC50 of IL-18BP on IFNγ secretion by NK92 cells [44]: 229 nM
IC50 of IL-18BP on IFNγ secretion by NK92 cells [45]: > 703 nM
IC50 of IL-18BP on IFNγ secretion by NK92 cells [46]: 0.809 nM
IC50 of IL-18BP on IFNγ secretion by NK92 cells [47]: 0.239 nM
IC50 of IL-18BP on IFNγ secretion by NK92 cells [48]: 396 nM
IC50 of IL-18BP on IFNγ secretion by NK92 cells [49]: 0.176 nM
IC50 of IL-18BP on IFNγ secretion by NK92 cells [50]: 6.08 nM
IC50 of IL-18BP on IFNγ secretion by NK92 cells [51]: 0.44 nM
IC50 of IL-18BP on IFNγ secretion by NK92 cells [52]: 1.07 nM
IC50 of IL-18BP on IFNγ secretion by NK92 cells [53]: 733 nM
IC50 of IL-18BP on IFNγ secretion by NK92 cells [54]: 4.46 nM
IC50 (read off the curve) [55]: 0.1 nM
IC50 (read off the curve) [56]: 8 nM
IC50 (read off the curve) [57]: 1 nM
IC50 (read off the curve) [58]: 10 nM
IC50 (read off the curve) [59]: 0.3 nM
Substance: Fc fused human IL-18 binding protein isoform a (from UniProt O95998 31-194) (Fc fusion)
